Numbering of substitutions follows the chain as printed. Numbers in names are those of the source.
How the values were obtained:
Experiment in all cases: cell-based or functional assay
[1] = target: T1, Chryseobacterium sp-62563 deamidase Q130N (Chryseobacterium sp-62563)
T1 sequence: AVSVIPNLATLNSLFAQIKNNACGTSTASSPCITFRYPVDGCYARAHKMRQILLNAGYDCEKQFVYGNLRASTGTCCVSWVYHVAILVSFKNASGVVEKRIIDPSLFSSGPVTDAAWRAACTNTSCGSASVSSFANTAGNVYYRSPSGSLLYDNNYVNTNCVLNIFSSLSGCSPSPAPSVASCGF

[2] = target: T2, Chryseobacterium sp-62563 deamidase C230N (Chryseobacterium sp-62563)
T2 sequence: T1 sequence with N21Q, C121N

[3] = target: T3, Chryseobacterium sp-62563 deamidase Q126E (Chryseobacterium sp-62563)
T3 sequence: T1 sequence with Q17E, N21Q

[4] = target: T4, Chryseobacterium sp-62563 deamidase Q126Y (Chryseobacterium sp-62563)
T4 sequence: T1 sequence with Q17Y, N21Q

[5] = target: T5, Chryseobacterium sp-62563 deamidase Q172V (Chryseobacterium sp-62563)
T5 sequence: T1 sequence with N21Q, Q63V

[6] = target: T6, Chryseobacterium sp-62563 deamidase Q126K (Chryseobacterium sp-62563)
T6 sequence: T1 sequence with Q17K, N21Q

[7] = target: T7, Chryseobacterium sp-62563 deamidase Q130E (Chryseobacterium sp-62563)
T7 sequence: T1 sequence with N21E

[8] = target: T8, Chryseobacterium sp-62563 deamidase C230H (Chryseobacterium sp-62563)
T8 sequence: T1 sequence with N21Q, C121H

[9] = target: T9, Chryseobacterium sp-62563 deamidase Q160E (Chryseobacterium sp-62563)
T9 sequence: T1 sequence with N21Q, Q51E

[10] = target: T10, Chryseobacterium sp-62563 deamidase Q126D (Chryseobacterium sp-62563)
T10 sequence: T1 sequence with Q17D, N21Q

[11] = target: T11, Chryseobacterium sp-62563 deamidase Q130K (Chryseobacterium sp-62563)
T11 sequence: T1 sequence with N21K

[12] = target: T12, Chryseobacterium sp-62563 deamidase Q160R (Chryseobacterium sp-62563)
T12 sequence: T1 sequence with N21Q, Q51R

[13] = target: T13, Chryseobacterium sp-62563 deamidase Q172N (Chryseobacterium sp-62563)
T13 sequence: T1 sequence with N21Q, Q63N

B1: Chryseobacterium sp-62563 propeptide F99A (protein)
chain: NQDPNLVAKESNETAMKDFGKTVPVGIEKEDGKFKISFMVTAQPYEIKDSKENAAYISMIKTAVENETPIHVFLKANTNEIAKVDKATDDDIRYFKSVATKEVKEENRK
Leakage activity [1]: 0%
Relative activity of maturated deamidase (% initial rate) [1]: 79
Leakage activity [2]: 0%
Relative activity of maturated deamidase (% initial rate) [2]: 42
Relative activity of maturated deamidase (% initial rate) [3]: > 100
Leakage activity [4]: 3%
Relative activity of maturated deamidase (% initial rate) [4]: 98
Relative activity of maturated deamidase (% initial rate) [5]: 66
Relative activity of maturated deamidase (% initial rate) [6]: > 100
Relative activity of maturated deamidase (% initial rate) [7]: 44
Leakage activity [8]: 0%
Relative activity of maturated deamidase (% initial rate) [9]: > 100
Relative activity of maturated deamidase (% initial rate) [10]: 99
Relative activity of maturated deamidase (% initial rate) [11]: 92
Relative activity of maturated deamidase (% initial rate) [12]: 86
Relative activity of maturated deamidase (% initial rate) [13]: 51
